# Assay results from patent publication US20250296959A1, “B7-H3 TARGETING PEPTIDES AND CONSTRUCTS THEREOF” (Mariana Oncology Inc., priority 2024, published 2025).
# Starred links: 1 amine or outer side, 2 acyl side, 3 side chain; linkers in the order of their positions; H or OH if unused. Positions of bridges follow the written chain, without caps; N, C: chain ends. Non-standard residues stand in square brackets, D forms with d. Groups on a side chain read outwards from the residue. Primed or numbered codes have the meaning given here. *: point of attachment. Ala(piperidin-4-yl) = O=C([C@H](CC1CCN([*:3])CC1)N[*:1])[*:2]; (2S,3S)βMePhe = C[C@@H](c1ccccc1)[C@H](N[*:1])C(=O)[*:2]; DOTA = O=C(O)CN1CCN(CC(=O)O)CCN(CC(=O)*)CCN(CC(=O)O)CC1; PipAla = piperidinyl-alanine residue (as named); Phe(4-COOH) = N[C@@H](Cc1ccc(C(=O)O)cc1)C(=O)O; Trp(5-F) = N[C@@H](Cc1c[nH]c2ccc(F)cc12)C(=O)O; hydroxyVal = hydroxy-valine residue (as named); PEG4′ = 4x 3-(2-aminoethoxy)propanoic acid; 1Nal = N[C@@H](Cc1cccc2ccccc12)C(=O)O; Ala(4-THP) = N[C@@H](CC1CCOCC1)C(=O)O; Val(3-OH) = CC(C)(O)[C@H](N)C(=O)O; 4Pal = N[C@@H](Cc1ccncc1)C(=O)O; aThr = C[C@H](O)[C@H](N)C(=O)O; Chg = N[C@H](C(=O)O)C1CCCCC1; Tle = CC(C)(C)[C@H](N)C(=O)O; hLeu = CC(C)CC[C@H](N)C(=O)O; Sar = CNCC(=O)O
# Target: T1, B7-H3 on Calu-6 cells (human, UniProt Q5ZPR3 29-534)
# T1 construct: whole, on cells
# T1 sequence (looked up): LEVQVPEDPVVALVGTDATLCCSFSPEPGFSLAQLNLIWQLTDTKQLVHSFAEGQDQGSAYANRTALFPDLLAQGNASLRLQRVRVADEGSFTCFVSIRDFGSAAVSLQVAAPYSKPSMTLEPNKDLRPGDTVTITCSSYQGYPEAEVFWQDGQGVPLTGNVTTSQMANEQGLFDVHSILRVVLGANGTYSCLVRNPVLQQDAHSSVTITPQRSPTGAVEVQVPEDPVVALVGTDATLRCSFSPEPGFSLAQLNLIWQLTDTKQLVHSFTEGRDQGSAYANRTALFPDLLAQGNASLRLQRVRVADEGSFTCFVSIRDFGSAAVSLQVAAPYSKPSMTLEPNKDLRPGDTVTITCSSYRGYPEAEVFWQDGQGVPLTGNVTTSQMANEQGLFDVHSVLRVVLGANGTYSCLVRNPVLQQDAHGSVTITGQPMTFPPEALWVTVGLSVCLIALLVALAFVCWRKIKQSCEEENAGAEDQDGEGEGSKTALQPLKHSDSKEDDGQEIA
# Assay: 177Lu-labelled peptide on Calu-6 cells, % cell associated fraction; C = >50%
row,Binder,% cell associated fraction [%]
1,Ac-[hLeu]YCVGKYD[Chg]YC[Trp(5-F)]FT[dK](DOTA)-NH2 (disulfide 3-11) [Cpd 215],> 50
2,Ac-[hLeu]YCVGK[4Pal]D[Chg]YC[Trp(5-F)]FT[dK](DOTA)-NH2 (disulfide 3-11; SMILES CC(=O)N[C@@H](CCC(C)C)C(=O)N[C@@H](Cc1ccc(O)cc1)C(=O)N[C@H]1CSSC[C@@H](C(=O)N[C@@H](Cc2c[nH]c3ccc(F)cc23)C(=O)N[C@@H](Cc2ccccc2)C(=O)N[C@H](C(=O)N[C@H](CCCCNC(=O)CN2CCN(CC(=O)O)CCN(CC(=O)O)CCN(CC(=O)O)CC2)C(N)=O)[C@@H](C)O)NC(=O)[C@H](Cc2ccc(O)cc2)NC(=O)[C@H](C2CCCCC2)NC(=O)[C@H](CC(=O)O)NC(=O)[C@H](Cc2ccncc2)NC(=O)[C@H](CCCCN)NC(=O)CNC(=O)[C@H](C(C)C)NC1=O) [Cpd 190],> 50
3,Ac-[hLeu]YC[Tle]GKYDVYC[Trp(5-F)]FT[dK](DOTA)-NH2 (disulfide 3-11; SMILES CC(=O)N[C@@H](CCC(C)C)C(=O)N[C@@H](Cc1ccc(O)cc1)C(=O)N[C@H]1CSSC[C@@H](C(=O)N[C@@H](Cc2c[nH]c3ccc(F)cc23)C(=O)N[C@@H](Cc2ccccc2)C(=O)N[C@H](C(=O)N[C@H](CCCCNC(=O)CN2CCN(CC(=O)O)CCN(CC(=O)O)CCN(CC(=O)O)CC2)C(N)=O)[C@@H](C)O)NC(=O)[C@H](Cc2ccc(O)cc2)NC(=O)[C@H](C(C)C)NC(=O)[C@H](CC(=O)O)NC(=O)[C@H](Cc2ccc(O)cc2)NC(=O)[C@H](CCCCN)NC(=O)CNC(=O)[C@H](C(C)(C)C)NC1=O) [Cpd 76],> 50
4,Ac-[hLeu]YC[Tle]GKYDVYCWFT[dK](DOTA)-NH2 (disulfide 3-11; SMILES CC(=O)N[C@@H](CCC(C)C)C(=O)N[C@@H](Cc1ccc(O)cc1)C(=O)N[C@H]1CSSC[C@@H](C(=O)N[C@@H](Cc2c[nH]c3ccccc23)C(=O)N[C@@H](Cc2ccccc2)C(=O)N[C@H](C(=O)N[C@H](CCCCNC(=O)CN2CCN(CC(=O)O)CCN(CC(=O)O)CCN(CC(=O)O)CC2)C(N)=O)[C@@H](C)O)NC(=O)[C@H](Cc2ccc(O)cc2)NC(=O)[C@H](C(C)C)NC(=O)[C@H](CC(=O)O)NC(=O)[C@H](Cc2ccc(O)cc2)NC(=O)[C@H](CCCCN)NC(=O)CNC(=O)[C@H](C(C)(C)C)NC1=O) [Cpd 72],> 50
5,Ac-[hLeu]YCVG[Ala(piperidin-4-yl)][Phe(4-COOH)]DVYC[Trp(5-F)]FP[dK](DOTA)-NH2 (disulfide 3-11; SMILES CC(=O)N[C@@H](CCC(C)C)C(=O)N[C@@H](Cc1ccc(O)cc1)C(=O)N[C@H]1CSSC[C@@H](C(=O)N[C@@H](Cc2c[nH]c3ccc(F)cc23)C(=O)N[C@@H](Cc2ccccc2)C(=O)N2CCC[C@H]2C(=O)N[C@H](CCCCNC(=O)CN2CCN(CC(=O)O)CCN(CC(=O)O)CCN(CC(=O)O)CC2)C(N)=O)NC(=O)[C@H](Cc2ccc(O)cc2)NC(=O)[C@H](C(C)C)NC(=O)[C@H](CC(=O)O)NC(=O)[C@H](Cc2ccc(C(=O)O)cc2)NC(=O)[C@H](CC2CCNCC2)NC(=O)CNC(=O)[C@H](C(C)C)NC1=O) [Cpd 286],> 50
6,Ac-[hLeu]YCVGKYDVYC[Trp(5-F)]FT[dK](DOTA)-NH2 (disulfide 3-11; SMILES CC(=O)N[C@@H](CCC(C)C)C(=O)N[C@@H](Cc1ccc(O)cc1)C(=O)N[C@H]1CSSC[C@@H](C(=O)N[C@@H](Cc2c[nH]c3ccc(F)cc23)C(=O)N[C@@H](Cc2ccccc2)C(=O)N[C@H](C(=O)N[C@H](CCCCNC(=O)CN2CCN(CC(=O)O)CCN(CC(=O)O)CCN(CC(=O)O)CC2)C(N)=O)[C@@H](C)O)NC(=O)[C@H](Cc2ccc(O)cc2)NC(=O)[C@H](C(C)C)NC(=O)[C@H](CC(=O)O)NC(=O)[C@H](Cc2ccc(O)cc2)NC(=O)[C@H](CCCCN)NC(=O)CNC(=O)[C@H](C(C)C)NC1=O) [Cpd 73],> 50
7,Ac-[hLeu]YCV[Sar]KYDVYC[Trp(5-F)]FT[dK](DOTA)-NH2 (disulfide 3-11; SMILES CC(=O)N[C@@H](CCC(C)C)C(=O)N[C@@H](Cc1ccc(O)cc1)C(=O)N[C@H]1CSSC[C@@H](C(=O)N[C@@H](Cc2c[nH]c3ccc(F)cc23)C(=O)N[C@@H](Cc2ccccc2)C(=O)N[C@H](C(=O)N[C@H](CCCCNC(=O)CN2CCN(CC(=O)O)CCN(CC(=O)O)CCN(CC(=O)O)CC2)C(N)=O)[C@@H](C)O)NC(=O)[C@H](Cc2ccc(O)cc2)NC(=O)[C@H](C(C)C)NC(=O)[C@H](CC(=O)O)NC(=O)[C@H](Cc2ccc(O)cc2)NC(=O)[C@H](CCCCN)NC(=O)CN(C)C(=O)[C@H](C(C)C)NC1=O) [Cpd 77],> 50
8,Ac-[hLeu]YCVGKYDVYC[1Nal]FT[dK](DOTA)-NH2 (disulfide 3-11; SMILES CC(=O)N[C@@H](CCC(C)C)C(=O)N[C@@H](Cc1ccc(O)cc1)C(=O)N[C@H]1CSSC[C@@H](C(=O)N[C@@H](Cc2cccc3ccccc23)C(=O)N[C@@H](Cc2ccccc2)C(=O)N[C@H](C(=O)N[C@H](CCCCNC(=O)CN2CCN(CC(=O)O)CCN(CC(=O)O)CCN(CC(=O)O)CC2)C(N)=O)[C@@H](C)O)NC(=O)[C@H](Cc2ccc(O)cc2)NC(=O)[C@H](C(C)C)NC(=O)[C@H](CC(=O)O)NC(=O)[C@H](Cc2ccc(O)cc2)NC(=O)[C@H](CCCCN)NC(=O)CNC(=O)[C@H](C(C)C)NC1=O) [Cpd 158],> 50
9,Ac-[hLeu]YCVGK[Ala(4-THP)]DVYC[Trp(5-F)]FT[dK](DOTA)-NH2 (disulfide 3-11; SMILES CC(=O)N[C@@H](CCC(C)C)C(=O)N[C@@H](Cc1ccc(O)cc1)C(=O)N[C@H]1CSSC[C@@H](C(=O)N[C@@H](Cc2c[nH]c3ccc(F)cc23)C(=O)N[C@@H](Cc2ccccc2)C(=O)N[C@H](C(=O)N[C@H](CCCCNC(=O)CN2CCN(CC(=O)O)CCN(CC(=O)O)CCN(CC(=O)O)CC2)C(N)=O)[C@@H](C)O)NC(=O)[C@H](Cc2ccc(O)cc2)NC(=O)[C@H](C(C)C)NC(=O)[C@H](CC(=O)O)NC(=O)[C@H](CC2CCOCC2)NC(=O)[C@H](CCCCN)NC(=O)CNC(=O)[C@H](C(C)C)NC1=O) [Cpd 200],> 50
10,Ac-[hLeu]YCIGK[Ala(4-THP)]DVYC[Trp(5-F)]F[Val(3-OH)][dK]([PEG4′-DOTA])-OH (disulfide 3-11) [Cpd 308],> 50

# Target: T1, B7-H3 on Calu-6 cells
# Assay: 177Lu-labelled peptide on Calu-6 cells, % cell associated fraction; B = 25<%<=50
row,Binder,% cell associated fraction [%]
1,Ac-[hLeu]YC[Tle]GK[4Pal]DVYCWFT[dK](DOTA)-NH2 (disulfide 3-11; SMILES CC(=O)N[C@@H](CCC(C)C)C(=O)N[C@@H](Cc1ccc(O)cc1)C(=O)N[C@H]1CSSC[C@@H](C(=O)N[C@@H](Cc2c[nH]c3ccccc23)C(=O)N[C@@H](Cc2ccccc2)C(=O)N[C@H](C(=O)N[C@H](CCCCNC(=O)CN2CCN(CC(=O)O)CCN(CC(=O)O)CCN(CC(=O)O)CC2)C(N)=O)[C@@H](C)O)NC(=O)[C@H](Cc2ccc(O)cc2)NC(=O)[C@H](C(C)C)NC(=O)[C@H](CC(=O)O)NC(=O)[C@H](Cc2ccncc2)NC(=O)[C@H](CCCCN)NC(=O)CNC(=O)[C@H](C(C)(C)C)NC1=O) [Cpd 157],25 to 50
2,Ac-[hLeu]YCVGKYDVYC[Trp(5-F)]FP[dK](DOTA)-NH2 (disulfide 3-11) [Cpd 160],25 to 50
3,Ac-[hLeu]YCVGKYDVYC[Trp(5-F)]F[aThr][dK](DOTA)-NH2 (disulfide 3-11) [Cpd 162],25 to 50
4,Ac-[hLeu]YCV[Sar]KYDVYCWFT[dK](DOTA)-NH2 (disulfide 3-11; SMILES CC(=O)N[C@@H](CCC(C)C)C(=O)N[C@@H](Cc1ccc(O)cc1)C(=O)N[C@H]1CSSC[C@@H](C(=O)N[C@@H](Cc2c[nH]c3ccccc23)C(=O)N[C@@H](Cc2ccccc2)C(=O)N[C@H](C(=O)N[C@H](CCCCNC(=O)CN2CCN(CC(=O)O)CCN(CC(=O)O)CCN(CC(=O)O)CC2)C(N)=O)[C@@H](C)O)NC(=O)[C@H](Cc2ccc(O)cc2)NC(=O)[C@H](C(C)C)NC(=O)[C@H](CC(=O)O)NC(=O)[C@H](Cc2ccc(O)cc2)NC(=O)[C@H](CCCCN)NC(=O)CN(C)C(=O)[C@H](C(C)C)NC1=O) [Cpd 74],25 to 50

# Target: B7-H3 on Calu-6 cells (human) (UniProt Q5ZPR3)
# Assay: 177Lu-labelled peptide on Calu-6 cells, % cell associated fraction; C = >50%
row,Binder,% cell associated fraction [%]
1,Ac-[hLeu]YC[Tle]G[PipAla][PipAla]([PEG4′-DOTA])DVYC[Trp(5-F)]F[hydroxyVal][dA]-OH (disulfide 3-11 (inferred)) [Cpd 455],> 50
2,"Ac-[hLeu]YC[Tle]G[PipAla][PipAla]([PEG4′-DOTA])DVYC[Trp(5-F)][(2S,3S)βMePhe][Val(3-OH)][dE]-NH2 (disulfide 3-11 (inferred)) [Cpd 495]",> 50
